Results from US20230192865A1.
Residue numbers refer to the chain shown, from its start. Blank lines part the entries; values can stand above or below the binder they belong to.

What was measured:
[1] = target: T1, Galectin-10 protein with His tag (expressed and purified with pk277) (Homo sapiens (Human)) (UniProt Q05315); assay: ELISA, His-tagged Galectin-10 coated at 125 ng/mL, 254# diluted 1:200, anti-GST mouse antibody and HRP goat anti-mouse, repeat 1
T1 sequence: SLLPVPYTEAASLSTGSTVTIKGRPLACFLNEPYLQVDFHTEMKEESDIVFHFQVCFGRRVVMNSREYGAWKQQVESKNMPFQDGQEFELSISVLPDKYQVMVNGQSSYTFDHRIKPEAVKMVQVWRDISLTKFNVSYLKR

[2] = target: T1, Galectin-10 protein with His tag (expressed and purified with pk277) (Homo sapiens (Human)); assay: ELISA, His-tagged Galectin-10 coated at 2500 ng/mL, 254# diluted 1:200, anti-GST mouse antibody and HRP goat anti-mouse, repeat 1
[3] = target: T1, Galectin-10 protein with His tag (expressed and purified with pk277) (Homo sapiens (Human)); assay: ELISA on coated His-tagged Galectin-10, anti-GST detection
[4] = target: T1, Galectin-10 protein with His tag (expressed and purified with pk277) (Homo sapiens (Human)); assay: ELISA, His-tagged Galectin-10 coated at 500 ng/mL, 254# diluted 1:200, anti-GST mouse antibody and HRP goat anti-mouse, average
[5] = target: T1, Galectin-10 protein with His tag (expressed and purified with pk277) (Homo sapiens (Human)); assay: ELISA, His-tagged Galectin-10 coated at 125 ng/mL, 254# diluted 1:200, anti-GST mouse antibody and HRP goat anti-mouse, repeat 3
[6] = target: T1, Galectin-10 protein with His tag (expressed and purified with pk277) (Homo sapiens (Human)); assay: ELISA, His-tagged Galectin-10 coated at 2500 ng/mL, 254# diluted 1:200, anti-GST mouse antibody and HRP goat anti-mouse, repeat 3
[7] = target: T1, Galectin-10 protein with His tag (expressed and purified with pk277) (Homo sapiens (Human)); assay: ELISA, His-tagged Galectin-10 coated at 500 ng/mL, 254# diluted 1:200, anti-GST mouse antibody and HRP goat anti-mouse, repeat 3
[8] = target: T1, Galectin-10 protein with His tag (expressed and purified with pk277) (Homo sapiens (Human)); assay: ELISA, His-tagged Galectin-10 coated at 125 ng/mL, 254# diluted 1:200, anti-GST mouse antibody and HRP goat anti-mouse, average
[9] = target: T1, Galectin-10 protein with His tag (expressed and purified with pk277) (Homo sapiens (Human)); assay: ELISA, His-tagged Galectin-10 coated at 125 ng/mL, 254# diluted 1:200, anti-GST mouse antibody and HRP goat anti-mouse, repeat 2
[10] = target: T1, Galectin-10 protein with His tag (expressed and purified with pk277) (Homo sapiens (Human)); assay: ELISA, His-tagged Galectin-10 coated at 500 ng/mL, 254# diluted 1:200, anti-GST mouse antibody and HRP goat anti-mouse, repeat 2
[11] = target: T1, Galectin-10 protein with His tag (expressed and purified with pk277) (Homo sapiens (Human)); assay: ELISA, His-tagged Galectin-10 coated at 2500 ng/mL, 254# diluted 1:200, anti-GST mouse antibody and HRP goat anti-mouse, average
[12] = target: T1, Galectin-10 protein with His tag (expressed and purified with pk277) (Homo sapiens (Human)); assay: ELISA, His-tagged Galectin-10 coated at 2500 ng/mL, 254# diluted 1:200, anti-GST mouse antibody and HRP goat anti-mouse, repeat 2
[13] = target: T1, Galectin-10 protein with His tag (expressed and purified with pk277) (Homo sapiens (Human)); assay: ELISA, His-tagged Galectin-10 coated at 500 ng/mL, 254# diluted 1:200, anti-GST mouse antibody and HRP goat anti-mouse, repeat 1
[14] = target: T1, Galectin-10 protein with His tag (expressed and purified with pk277) (Homo sapiens (Human)); assay: ELISA, His-tagged Galectin-10 coated at 125 ng/mL, 225# diluted 1:200, anti-GST mouse antibody and HRP goat anti-mouse, repeat 3
[15] = target: T1, Galectin-10 protein with His tag (expressed and purified with pk277) (Homo sapiens (Human)); assay: ELISA, His-tagged Galectin-10 coated at 500 ng/mL, 225# diluted 1:200, anti-GST mouse antibody and HRP goat anti-mouse, repeat 1
[16] = target: T1, Galectin-10 protein with His tag (expressed and purified with pk277) (Homo sapiens (Human)); assay: ELISA, His-tagged Galectin-10 coated at 500 ng/mL, 225# diluted 1:200, anti-GST mouse antibody and HRP goat anti-mouse, repeat 2
[17] = target: T1, Galectin-10 protein with His tag (expressed and purified with pk277) (Homo sapiens (Human)); assay: ELISA, His-tagged Galectin-10 coated at 125 ng/mL, 225# diluted 1:200, anti-GST mouse antibody and HRP goat anti-mouse, repeat 1
[18] = target: T1, Galectin-10 protein with His tag (expressed and purified with pk277) (Homo sapiens (Human)); assay: ELISA, His-tagged Galectin-10 coated at 2500 ng/mL, 225# diluted 1:200, anti-GST mouse antibody and HRP goat anti-mouse, average
[19] = target: T1, Galectin-10 protein with His tag (expressed and purified with pk277) (Homo sapiens (Human)); assay: ELISA, His-tagged Galectin-10 coated at 125 ng/mL, 225# diluted 1:200, anti-GST mouse antibody and HRP goat anti-mouse, repeat 2
[20] = target: T1, Galectin-10 protein with His tag (expressed and purified with pk277) (Homo sapiens (Human)); assay: ELISA, His-tagged Galectin-10 coated at 500 ng/mL, 225# diluted 1:200, anti-GST mouse antibody and HRP goat anti-mouse, average
[21] = target: T1, Galectin-10 protein with His tag (expressed and purified with pk277) (Homo sapiens (Human)); assay: ELISA, His-tagged Galectin-10 coated at 2500 ng/mL, 225# diluted 1:200, anti-GST mouse antibody and HRP goat anti-mouse, repeat 2
[22] = target: T1, Galectin-10 protein with His tag (expressed and purified with pk277) (Homo sapiens (Human)); assay: ELISA, His-tagged Galectin-10 coated at 2500 ng/mL, 225# diluted 1:200, anti-GST mouse antibody and HRP goat anti-mouse, repeat 3
[23] = target: T1, Galectin-10 protein with His tag (expressed and purified with pk277) (Homo sapiens (Human)); assay: ELISA, His-tagged Galectin-10 coated at 2500 ng/mL, 225# diluted 1:200, anti-GST mouse antibody and HRP goat anti-mouse, repeat 1
[24] = target: T1, Galectin-10 protein with His tag (expressed and purified with pk277) (Homo sapiens (Human)); assay: ELISA, His-tagged Galectin-10 coated at 500 ng/mL, 225# diluted 1:200, anti-GST mouse antibody and HRP goat anti-mouse, repeat 3
[25] = target: T1, Galectin-10 protein with His tag (expressed and purified with pk277) (Homo sapiens (Human)); assay: ELISA, His-tagged Galectin-10 coated at 125 ng/mL, 225# diluted 1:200, anti-GST mouse antibody and HRP goat anti-mouse, average

OD at 450 nm [1]: 0.397 OD450 | OD at 450 nm [2]: 1.32 OD450 | minimum test concentration [3]: 125 ng/mL | OD at 450 nm [4]: 0.581 OD450 | OD at 450 nm [5]: 0.37 OD450 | OD at 450 nm [6]: 1.34 OD450 | OD at 450 nm [7]: 0.577 OD450 | OD at 450 nm [8]: 0.373 OD450 | OD at 450 nm [9]: 0.353 OD450 | OD at 450 nm [10]: 0.551 OD450 | OD at 450 nm [11]: 1.28 OD450 | OD at 450 nm [12]: 1.2 OD450 | OD at 450 nm [13]: 0.615 OD450
B1: 254# nano antibody (SEQ ID NO: 3) (VHH, not shown: a dimerising Fc or GST; small tags and cut ends)
VHH: EVQLQASGGGFVQPGGSLRLSCAASGFTFSSFAMGWFRQAPGKEREFVSAISSGGGNTYYADSVKGRFTISRDNSKNTVYLQMNSLRAEDTATYYCVTPGGRLWYYRYDYRCQGTQVTVSS

OD at 450 nm [14]: 0.173 OD450 | OD at 450 nm [15]: 0.257 OD450 | OD at 450 nm [16]: 0.26 OD450 | OD at 450 nm [17]: 0.155 OD450 | OD at 450 nm [18]: 0.707 OD450 | OD at 450 nm [19]: 0.153 OD450 | minimum test concentration [3]: 125 ng/mL | OD at 450 nm [20]: 0.265 OD450 | OD at 450 nm [21]: 0.7 OD450 | OD at 450 nm [22]: 0.681 OD450 | OD at 450 nm [23]: 0.74 OD450 | OD at 450 nm [24]: 0.279 OD450 | OD at 450 nm [25]: 0.16 OD450
B2: 225# nano antibody (SEQ ID NO: 4) (VHH, not shown: a dimerising Fc or GST; small tags and cut ends)
VHH: B1 VHH with F32Y, F47L
